According to article PMC7933130 (Nature, 2021):

Target: the molecule itself
Experiment: SEC-MALS

B1: human Na+-dependent citrate transporter NaCT (SLC13A5), wildtype (natural protein)
chain: not shown
modifications: one glycan unit connected to Asn562 (N-glycosylation site)
stoichiometry N: 2
